T1: FLAG-tagged Regnase-1 AA mutant (S435A/S439A), purified from or expressed in Regnase-1-deficient MEFs
T1 chain: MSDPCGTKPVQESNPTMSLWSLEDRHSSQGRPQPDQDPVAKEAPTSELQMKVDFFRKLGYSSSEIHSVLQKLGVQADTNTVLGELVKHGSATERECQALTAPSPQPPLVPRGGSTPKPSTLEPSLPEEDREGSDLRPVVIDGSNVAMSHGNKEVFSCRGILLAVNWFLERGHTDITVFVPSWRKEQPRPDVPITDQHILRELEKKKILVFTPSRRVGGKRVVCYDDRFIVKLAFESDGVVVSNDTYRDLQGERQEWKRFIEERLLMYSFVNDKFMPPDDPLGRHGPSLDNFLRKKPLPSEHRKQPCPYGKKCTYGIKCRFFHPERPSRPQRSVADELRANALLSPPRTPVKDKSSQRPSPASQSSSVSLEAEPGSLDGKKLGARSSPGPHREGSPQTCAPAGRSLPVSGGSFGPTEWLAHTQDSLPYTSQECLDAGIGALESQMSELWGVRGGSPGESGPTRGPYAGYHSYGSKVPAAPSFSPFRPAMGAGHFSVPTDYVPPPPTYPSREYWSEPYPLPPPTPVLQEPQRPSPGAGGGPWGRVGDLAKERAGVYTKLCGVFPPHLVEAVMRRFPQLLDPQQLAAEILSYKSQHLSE

T2: biotinylated human Regnase-1 (full length, C-terminal BirA recognition sequence, GST tag cleaved)
T2 chain: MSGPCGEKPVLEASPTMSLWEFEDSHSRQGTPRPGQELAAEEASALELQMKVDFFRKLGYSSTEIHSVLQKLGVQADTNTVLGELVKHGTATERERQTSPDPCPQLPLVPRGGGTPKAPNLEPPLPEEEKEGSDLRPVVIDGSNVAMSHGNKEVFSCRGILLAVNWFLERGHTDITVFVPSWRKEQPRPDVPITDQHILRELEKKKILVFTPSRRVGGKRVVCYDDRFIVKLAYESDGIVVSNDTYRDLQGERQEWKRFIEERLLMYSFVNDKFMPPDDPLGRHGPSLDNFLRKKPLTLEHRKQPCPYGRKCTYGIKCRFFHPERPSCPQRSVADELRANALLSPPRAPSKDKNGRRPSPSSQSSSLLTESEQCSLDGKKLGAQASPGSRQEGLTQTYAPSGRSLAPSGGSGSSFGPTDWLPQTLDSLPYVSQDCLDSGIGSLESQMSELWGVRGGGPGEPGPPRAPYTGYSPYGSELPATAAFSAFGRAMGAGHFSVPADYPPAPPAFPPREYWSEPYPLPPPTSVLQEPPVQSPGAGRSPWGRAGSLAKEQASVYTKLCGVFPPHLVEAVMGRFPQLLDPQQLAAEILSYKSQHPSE

B1: GST-tagged TBK1 (Sigma) (protein)
chain: MQSTSNHLWLLSDILGQGATANVFRGRHKKTGDLFAIKVFNNISFLRPVDVQMREFEVLKKLNHKNIVKLFAIEEETTTRHKVLIMEFCPCGSLYTVLEEPSNAYGLPESEFLIVLRDVVGGMNHLRENGIVHRDIKPGNIMRVIGEDGQSVYKLTDFGAARELEDDEQFVSLYGTEEYLHPDMYERAVLRKDHQKKYGATVDLWSIGVTFYHAATGSLPFRPFEGPRRNKEVMYKIITGKPSGAISGVQKAENGPIDWSGDMPVSCSLSRGLQVLLTPVLANILEADQEKCWGFDQFFAETSDILHRMVIHVFSLQQMTAHKIYIHSYNTATIFHELVYKQTKIISSNQELIYEGRRLVLEPGRLAQHFPKTTEENPIFVVSREPLNTIGLIYEKISLPKVHPRYDLDGDASMAKAITGVVCYACRIASTLLLYQELMRKGIRWLIELIKDDYNETVHKKTEVVITLDFCIRNIEKTVKVYEKLMKINLEAAELGEISDIHTKLLRLSSSQGTIETSLQDIDSRLSPGGSLADAWAHQEGTHPKDRNVEKLQVLLNCMTEIYYQFKKDKAERRLAYNEEQIHKFDKQKLYYHATKAMTHFTDECVKKYEAFLNKSEEWIRKMLHLRKQLLSLTNQCFDIEEEVSKYQEYTNELQETLPQKMFTASSGIKHTMTPIYPSSNTLVEMTLGMKKLKEEMEGVVKELAENNHILERFGSLTMDGGLRNVDCL
B2: TBK1 (manufactured by SignalChem) (protein)
chain: B1 chain
B3: GST-tagged IKKi (Thermo Fisher Scientific) (protein)
chain: MQSTANYLWHTDDLLGQGATASVYKARNKKSGELVAVKVFNTTSYLRPREVQVREFEVLRKLNHQNIVKLFAVEETGGSRQKVLVMEYCSSGSLLSVLESPENAFGLPEDEFLVVLRCVVAGMNHLRENGIVHRDIKPGNIMRLVGEEGQSIYKLTDFGAARELDDDEKFVSVYGTEEYLHPDMYERAVLRKPQQKAFGVTVDLWSIGVTLYHAATGSLPFIPFGGPRRNKEIMYRITTEKPAGAIAGAQRRENGPLEWSYTLPITCQLSLGLQSQLVPILANILEVEQAKCWGFDQFFAETSDILQRVVVHVFSLSQAVLHHIYIHAHNTIAIFQEAVHKQTSVAPRHQEYLFEGHLCVLEPSVSAQHIAHTTASSPLTLFSTAIPKGLAFRDPALDVPKFVPKVDLQADYNTAKGVLGAGYQALRLARALLDGQELMFRGLHWVMEVLQATCRRTLEVARTSLLYLSSSLGTERFSSVAGTPEIQELKAAAELRSRLRTLAEVLSRCSQNITETQESLSSLNRELVKSRDQVHEDRSIQQIQCCLDKMNFIYKQFKKSRMRPGLGYNEEQIHKLDKVNFSHLAKRLLQVFQEECVQKYQASLVTHGKRMRVVHETRNHLRLVGCSVAACNTEAQGVQESLSKLLEELSHQLLQDRAKGAQASPPPIAPYPSPTRKDLLLHMQELCEGMKLLASDLLDNNRIIERLNRVPAPPDV
B4: IKKβ (manufactured by SignalChem) (protein)
chain: MSWSPSLTTQTCGAWEMKERLGTGGFGNVIRWHNQETGEQIAIKQCRQELSPRNRERWCLEIQIMRRLTHPNVVAARDVPEGMQNLAPNDLPLLAMEYCQGGDLRKYLNQFENCCGLREGAILTLLSDIASALRYLHENRIIHRDLKPENIVLQQGEQRLIHKIIDLGYAKELDQGSLCTSFVGTLQYLAPELLEQQKYTVTVDYWSFGTLAFECITGFRPFLPNWQPVQWHSKVRQKSEVDIVVSEDLNGTVKFSSSLPYPNNLNSVLAERLEKWLQLMLMWHPRQRGTDPTYGPNGCFKALDDILNLKLVHILNMVTGTIHTYPVTEDESLQSLKARIQQDTGIPEEDQELLQEAGLALIPDKPATQCISDGKLNEGHTLDMDLVFLFDNSKITYETQISPRPQPESVSCILQEPKRNLAFFQLRKVWGQVWHSIQTLKEDCNRLQQGQRAAMMNLLRNNSCLSKMKNSMASMSQQLKAKLDFFKTSIQIDLEKYSEQTEFGITSDKLLLAWREMEQAVELCGRENEVKLLVERMMALQTDIVDLQRSPMGRKQGGTLDDLEEQARELYRRLREKPRDQRTEGDSQEMVRLLLQAIQSFEKKVRVIYTQLSKTVVCKQKALELLPKVEEVVSLMNEDEKTVVRLQEKRQKELWNLLKIACSKVRGPVSGSPDSMNASRLSQPGQLMSQPSTASNSLPEPAKKSEELVAEAHNLCTLLENAIQDTVREQDQSFTALDWSWLQTEEEEHSCLEQAS

Columns and labels:
[1] = biological target: T1, FLAG-tagged Regnase-1 AA mutant …
[2] = biological target: T2, biotinylated human Regnase-1 (full …)

| Protein | in vitro phosphorylation (mobility shift by immunoblotting, 32P autoradiography) [1] | in vitro phosphorylation reaction, western blotting with anti-phosphorylated Regnase-1 antibody [2] |
| --- | --- | --- |
| B1 | Phosphorylation of recombinant Regnase-1 by recombinant TBK1 and/or IKKi under in vitro conditions was detected | – |
| B2 | – | it was confirmed that human Regnase-1 is phosphorylated by IKKβ and TBK1 |
| B3 | Phosphorylation of recombinant Regnase-1 by recombinant TBK1 and/or IKKi under in vitro conditions was detected | – |
| B4 | – | it was confirmed that human Regnase-1 is phosphorylated by IKKβ and TBK1 |

From US20250018014A1, “METHOD FOR TREATING AND/OR PREVENTING REGNASE-1-RELATED DISEASE” (OSAKA UNIVERSITY, priority 2018, published 2025)
